From the nanobody polyreactivity screen of Harvey et al. (2022)

Assay: yeast display, Sf9 membrane polyspecificity reagent, FACS + sequencing; frameworks hold sequencing errors
Outline: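 After 36–48 hours of galactose induction, yeast (Saccharomyces cerevisiae BJ5465) displaying a synthetic nanobody library were stained at 4 °C for 1 hour with 10% biotinylated, detergent-solubilized Sf9 membrane reagent. Streptavidin microbeads enriched the stained cells before FACS sorting into low and high (top ~1%) gates on anti-HA and streptavidin fluorescence. Each clone's polyreactivity label reflects its gate of origin.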

Sequence | polyreactivity (PSR sort gate)
QVQLVESGGGLVQSGGILRLSCAATGSIFTSDAMGWYRLAPGKEMELVAAITFSGGDTYYADSVKGRFTISRDNAKNTVYLQMNSLNPEDTAVYYCNADPQQVGAYEYWGQGTQVTLSS | low polyreactivity
QVQLVESGGGLVQSGGSLPLSCAASGRIFSRNAMGWYRQAPGKERELVAAITSGGSTYYADSVKGRFTISRDNAKNTVYLQMNSLKPEDTAVSTVKILRYDYWGQGTQVTVSS | high polyreactivity
QVQLVESGGGLVQSGGSLRISCAASGGIFKYNAMGWYTQAPGKERELVAAINYSGGRTYYADSVKGRFTISRDNAKNTVYLQMNSLKPEDTAVFYCNALTRGHTGQPYTYDYWGQGNQVTVSS | high polyreactivity
QVQLVESGGGLVQSGGSLRLSCAASGFTFASYAMGWYRQAPGKERELVAAIDSDDSTNYADSVKGRFTISRDNAKNTVYLQMNSLKPEDTAVYYCAADEGPYYGIYEYYYWGQGTQVTVSS | high polyreactivity
QVQLVESGGGLVQSGGSLRLSCAASGGTFRSYAMGWYIQAPGKERELVYAIRRSGGSTYYADSVKGRFTISRDNTKNTVYLQMNSLKPEDTAVYYCAARGYNSRRIWKYYYWGQGTQVTVTS | high polyreactivity
QVQLVESGGGLVQSGGSLRLSCAASGITFFEYAMGWYRQAPGKERELVAVITSGGSTNYADSVKGRFTISRDNAKNTVYLQMNSLKPEDTAVYYCNALVVKYRWWYDYYYWGQGTQVTVSS | low polyreactivity
QVQLVESGGGLVQSGGSLRLSCAASGRIIIRYAMGWYIQEPGKERELVAAISKNGGTTYYADSVKGRFTISRDNAKYTVYLQMNSLKPVDTAVYYGAKRLVSRGRTYAYPEYDYWGQGTQVTVSS | high polyreactivity
QVQLVESGGGLVQSGGSLRLSCAASGRTYDSYAMGWYRPAPGKERELVAVISRSGRTYYADSVKGRFTISRDNAKNTVYLQMNSLKPEDTAVYYCAAKWFRTWSGYWGQGSQVTVSS | high polyreactivity
QVQLVESGGGLVQSGGSLRLSCAASGSIFIGNTMGWYRQAPGKERELVATIRRSGSRTYYADSVKGRFTISRDNAKHTVYLQMNSLKPEDTAVYYCAAVRLRTSGYKTIYDYWGQGTQVTVSS | low polyreactivity
QVQLVESGGGLVQSGGSLRLSCAASGSIFYLYAMGWYRQAPGKERELVAAISWTGGSSYYADSVKGRFTISRDNAKNTVYLQMNSLKPEDTAVYYCAADRVLGGPQPGGSSFRGDYWGQGTQVTVSS | low polyreactivity
QVQLVESGGGLVQSGGSLRLSCAASGSILKFNAMVWYRQAPGKERELVAAITRGTNTYYADSVKGRFTISRDNAKNTVYLQMNSLKPEDTAVYYCAARLPYNAIGYYYWGQGTQVTVSS | low polyreactivity
QVQLVESGGGLVQSGGSLRLSCAASGSTFNYYAMGWYRQAPGKERELVAVINKSGGRTNYADSVKGRFTISRDNAKNTVYLQMNSLKPEDTAVYYCNKVTRREGSYGYPSRYEYWGQGTQVTVSS | high polyreactivity
QVQLVESGGGLVQSGGSLRLSCAASGSTFSRYVMGSYRQAPGKERELVAAITNTGSTYYADSVKGRFTISRDNAKNTVYLQMNSLKPEDTAVYYCAATQYRSDGWRYDYWGQGTQVTVSS | high polyreactivity
QVQLVESGGGLVQSGGSLRLSCAASGSTLIGNAMGWYRQAPGKERELVAAISSGGRTYYADSVKGRFTISRDNAKNTVYLQMNSLKPEDTAVYYCAADTVGTNVVSPELDYWGQGTQVTVSS | low polyreactivity
QVQLVESGGGLVQSGGSLRLSCAASGYIFGYYAMGWYRQAPGKERELVAAITGTDDTYYADSVKGRFTISRDNAKNTVYLQMNSLKPEDTAVYYCAAYSWWNEYDYWGQGTQVTVSS | high polyreactivity
QVQLVESGGGLVQSGGSLRLSCAASGYIIPRYAMGWYIHAPGKERELVAGITTGVRTNYADSVKGRFTISRDNAKNSVYLQMNSLKPGDTAVYYCNARYFRYRYNRYDYWGQGTQVTVSS | high polyreactivity
QVQLVESGGGLVQSGGSLRLSCAASGYIVRNAMGWYRQAPVKERELVAAITWSGGSTYYADSVKGRFTISRDNAKNTVYLQMNSLKPEDTAVYYCNARRNVRQTFGYEYWGQGTQVTVSS | high polyreactivity
QVQLVESGGGLVQSGGSLRLSSASSGRTFSGYVMGWYRQAPGKEREFVAVISRGGSTYYADSVKGRFTISRDNAKNTVYLQMNSLKPEDTAVYYCAGRLTYTGGQGAYDYWGQGTQVTVSS | high polyreactivity
QVQLVESGGGLVQSGGSLRLTCAASGFIFHKYVMGWYSPAPGKEREMVAAISRSGASTYYADSVKGRFTISRDNAKNTVYLQMNSLKPEDTAVYYCAKDYQTYSGSSDFDYWGQGSQVTVSS | high polyreactivity
QVQLVESGGGLVQSGGSLRLTCAASGSILWYNGMGWYSQAPGKERELVAAITSGGSTNYADSVKGRFTISRDNAKNTFYLHMNSLKPEDTEVYYCKARPYWFGSYGYWGQGTKVTVSS | low polyreactivity
QVQLVESGGGLVQSRGSLSLICAASGRTYRTYTMGWYRQSPGKERQFVAAIDRTGGSTYYADSVKGRFTISRDNAKNTVYLQMNSLKPEDTAVYYCAATASYIYWGKIYGYDYWGQGTQVTVSS | high polyreactivity
QVQLVESGGGLVQTGGSLRLSCAASGFNFYINAMGWYRQAPVKERELVAAINWRTGSTYYADSVKGRFTISRDNAKNTVYLQMNSLKQEDTAVYYCAAYGYWRRADTEFDYWGQGTQVTVSS | low polyreactivity

Sequence | polyreactivity (PSR sort gate)
QVQLVESGGGLVQTGGSLRVSCAASGLIFSRSAMGWYRQAPGKVRELVAAISSRGGSTYYADSVKGRFTISRDNAKNTVYLQMKSLIPEDTAVYFCDASRSYVHPVIGYGYWGQGTQVTVSS | high polyreactivity
QVQLVESGGGLVQVGGILLLSCAASGFTFYDYAMGWYRQAPGKERELVAAISRGGSTYYADSVKGRFTISRDNAKNTVNLQMNSLKPEDTAVYYCNARPTRIYHGMVYWGQGTQVTVSS | low polyreactivity
QVQLVESGGGLYQAGGSLRLSCAASGRIFATNAMRWSRQAPGKERELVATITRSAGRTYYADSVKGRFTISRDNAKNTVYLQMNSLKPEDTAVYYCAASYWDTEPGYREYDYWGQGTQVTVSS | low polyreactivity
QVQLVESGGGSVQAGGSLRLSCAASGFTIRTYAMGWYRQAPGKESELVAAITSSGSSTYYAYSVKGRFTISRDNAKNTVYLQMNSLKPEDTAVYYCAADAPRSYRFGYWGQGTQVTVSS | high polyreactivity
QVQLVESGGGVDQAGGSLRLSCAASGLSLRVNVMGWYRPAPGKERELVAAISGGGRTYYADSVKGRFTISRDNAKNTVYLQMNSLKPEDTAVYYCATVRRRLSLTYDYWGQGTQVTVSS | high polyreactivity
QVQLVESGGGVQAGGSLRLSCAASGRTFVPYAMGWYRQAPGKERELVAAISSIGDSTSYADSVKGRFTISRDNAKNTVYLQMNCLKPEDTAVYYFAAAEDRDRLVPKLDYWGQGTQVTVSS | low polyreactivity
QVQLVESGGGVVQAGGSLRLSCAASGFIFEYYPMGWYRPAPGKERELVAAISWSGGSTYYADSVKGRFTISRDNAKNTVYLQMNSLKPEDTAVYYCAAGRYFHHPTSYYYWGQGTQVTVSS | high polyreactivity
QVQLVESGGGVVQAGGSLRLSCAASGFIFYQYAMGWYRQAPGKERELVAAITSRGGRTYYADSVKGRFTISRDNAKNTVYLQMNSLKPEDTAVYYCAVRKASDYYYWGQGTQVTVSS | high polyreactivity
QVQLVESGGGVVQAGGSLRLSCAASGFTFVRYTMGWYRQAPGKERELVAAITKRGGSTYYADSVKGRFTISRDNAKNTVYLQMNSLKPEDTAVYYCAAAVGNTDREYDYWGQGTQVTVSS | low polyreactivity
QVQLVESGGGVVQAGGSLRLSCAASGIIFYRYAMGWYRQAPGKERELVARITNGGNTYYADSVKGRFTISRDNAKNTVYLQMNSLKPEDTAVYYCAVRVFGYSPYSNWMYYWGQGTQVTVSS | high polyreactivity
QVQLVESGGGVVQAGGSLRLSCAASGITFTVNAIGWYRQAPGKDREFFAAITYSGGNTYYADSVKGRFTISRDNAKNTVYLQMNSLTPEDTAVYYCNSDSAVGIVGARFFYDYWGQGTQVTVSS | low polyreactivity
QVQLVESGGGVVQAGGSLRLSCAASGITLAWYAMGWSRQAPGKERELVAAINSGGSTYYADSVKGRFTISRDTAKNTVYLQMNSLKPEDTAVYYCNTDDDSSSTGYYSWGQGTQVTVSS | low polyreactivity
QVQLVESGGGVVQAGGSLRLSCAASGITYGRNTMGWYIHAPGKERELVAAIDSGGNTYADSVKGRFTISRDNAKNTVYLQMNSLKPEDTAVYYGAATFIQVVVNVQLYDYDYWGQGTQVNVSS | low polyreactivity
QVQLVESGGGVVQAGGSLRLSCAASGLIFRRYAMGWSRQAPGIDRELVAAISGNGGSTYYADSVKGRFTISRDNAKNTVYVQMTCLKPEDTAVYYCAARSLGIYNYWGQGTQVTVSS | high polyreactivity
QVQLVESGGGVVQAGGSLRLSCAASGRIFPYNAMGWYRQAPGKERELVAAISSGGSTTYADSVKGRFTISRDNAKNTVYLHMNSLKPEDTAVYYCAREVYRHYAPVGYDYWGQGTQVTVSS | high polyreactivity
QVQLVESGGGVVQAGGSLRLSCAASGRIFRYYAMGWYRQAPGKERELVAGITTGGGSTYYADSVKGRFTISRDNAKNTVYLQMNSLKPEDTAVYYCAARYYTTFYWGQGTQVTVSS | high polyreactivity
QVQLVESGGGVVQAGGSLRLSCAASGRIFSVYAMVWYRQAPGKEREFVGSISWRGGRTYYADSVKGRFTISRDNAKNTVYLQMISLKPEDTAVYYCAAVSYPAVYGFDYWGQGTQVTVSS | high polyreactivity
QVQLVESGGGVVQAGGSLRLSCAASGRTFCIYAMGWYRPAPGKEREVVAAITGRGGSTHYADSVKGRFTISRDNAKNTVYLQMNSLKPEDTAVYYGAADYRYNRGITSNKDYDYWGQGTQVTVSS | low polyreactivity
QVQLVESGGGVVQAGGSLRLSCAASGRTFGWNTMGWYRQAPGKERELVAAISYSTGRTYYADSVKGRFTISRDNAKYTVYLQMNSLKPEDTAVYYCAATRPYRYNYWGQGTQVTVSS | high polyreactivity
QVQLVESGGGVVQAGGSLRLSCAASGRTFRRNAMGWYRQAPGKERELVAAITSSGGSTYYADSVKGRFTISRDNAKNTVYFQMNSLKPEDTEVYYCNAFYTGRSAPDSWGQGTQVTVSS | high polyreactivity
QVQLVESGGGVVQAGGSLRLSCAASGSHFISNAMGWYRQAPGKERELVAAITSSGGSTYYADSVKGRFTISRDNAKNTVYLQMNSLKPEVTAVYYCAARPGRNYYYWGQGTQVTVSS | high polyreactivity
